# Test results taken from patent US10662230B2, “Cyclic RGD cell-binding motif and uses thereof” (Spiber Technologies AB, priority 2015, dated 2020).
# Entries after “also recorded” stand apart in the source; their conditions may differ.
# B1: FNCC-silk: recombinant spider silk protein 4RepCT with N-terminal cysteine-looped RGD motif CTGRGDSPAC (SEQ ID NO: 10) (protein)
# chain: GPNSCTGRGDSPACGSASGQGGYGGLGQGGYGQGAGSSAAAAAAAAAAAAGGQGGQGQGGYGQGSGGSAAAAAAAAAAAAAAAGRGQGGYGQGSGGNAAAAAAAAAAAAAAAGQGGQGGYGRQSQGAGSAAAAAAAAAAAAAAGSGQGGYGGQGQGGYGQSSASASAAASAASTVANSVSRLSSPSAVSRVSSAVSSLVSNGQVNMAALPNIISNISSSVSASAPGASGCEVIVQALLEVITALVQIVSSSSVGYINPSAVNQITNVVANAMAQVMG
# modifications: cyclic disulfide loop; Fusion protein; DISULFID (5)..(14)
# How the values were obtained:
# Type in all cases: cell-based
# [1] = test system: Normal human epidermal keratinocytes (KC); assay: Cell spreading by F-actin staining, keratinocytes; conditions: 3 h adhesion
# Procedure: Cells were harvested at passage 3-8, seeded at 3500/cm^2 and allowed to adhere onto films for 20 min, 1 or 3 hours in chamber slides. After gentle washing, cells were fixed with 4% paraformaldehyde, permeabilized with 0.1% Triton X-100 in PBS, and blocked with 1% bovine serum albumin (BSA, AppliChem) in PBS. Secondary antibody was AlexaFlour488 goat anti mouse IgG (H+L), cross adsorbed (Invitrogen), used at 1:500. Phalloidin-AlexaFluor594 (Life Technologies) were used at 1:40 to detect filamentous actin. DAPI was used for nuclear staining. Slides were mounted in Fluorescence mounting medium (Dako, Copenhagen). The stained cells were analyzed using an inverted microscope (Nikon Eclipse Ti) at 4× and 10× magnification. Excitation at 563/45 nm and detection at 625/50 nm was used for red fluorescence, whereas excitation with 387/11 nm and detection at 447/60 nm was used to monitor blue fluorescence. By staining for F-actin, cell spreading and formation of stress fibers in KC after 3 h adhesion were investigated (FIG. 6).
# [2] = test system: Normal human epidermal keratinocytes (KC); assay: Formation of focal adhesions (F-actin/vinculin staining), keratinocytes
# Procedure: Cells were harvested at passage 3-8, seeded at 3500/cm^2 and allowed to adhere onto films for 20 min, 1 or 3 hours in chamber slides. After gentle washing, cells were fixed with 4% paraformaldehyde, permeabilized with 0.1% Triton X-100 in PBS, and blocked with 1% bovine serum albumin (BSA, AppliChem) in PBS.
# Primary antibody were used at the following concentrations in 1% BSA: mouse anti human vinculin (Sigma V9131) at 9.5 μg/ml, mouse-anti human beta1-integrin (activated conformation, clone HUTS-4) at 3.3 μg/mL, or mouse-anti human alpha5-integrin (ligand bound conformation, clone SNAKA-51) at 2.5 μg/mL, both Millipore.
# Secondary antibody was AlexaFlour488 goat anti mouse IgG (H+L), cross adsorbed (Invitrogen), used at 1:500. Phalloidin-AlexaFluor594 (Life Technologies) were used at 1:40 to detect filamentous actin. DAPI was used for nuclear staining. Slides were mounted in Fluorescence mounting medium (Dako, Copenhagen).
# For microscopic analysis of cell adhesion (formation of focal adhesions and stress fibers), a confocal microscope was used (Carl Zeiss LSM 710) at 10× and 63× magnification.
# Quality of focal adhesions were graded from 1-4 regarding presence of small and dim focal adhesion (=1p), small and distinct focal adhesions (=2p), abundant focal adhesions (=3p) and large and bright focal adhesions (=4p), and multiplied with the portion of positive cells expressing this specific type of focal adhesions (0-4, where 0≈none of, 1≈one fourth of, 2≈half of, 3≈three fourths of, and 4≈all of the focal adhesion-positive cells.)
# Formation of focal adhesions within the cells was analyzed after 3 h by staining for F-actin in combination with vinculin, which is one of the major components of the focal adhesion complex. Co-staining of F-actin and vinculin is thus a sign of integrin-involved, well established binding of cells to the underlying substrate. Focal adhesions appear as yellow-greenish elongations of the F-actin filaments, often situated close to the cell membrane.
# The results from the analysis of formation and characterization of focal adhesions in KC after adherence for 3 h onto films of WT-silk (SEQ ID NO: 2) or silk functionalized with FNCC (SEQ ID NO: 13), FNVS (SEQ ID NO: 15), FNSS (SEQ ID NO: 14) or RGD (SEQ ID NO: 16) is presented in FIG. 7. Slides were scanned with a confocal microscope at 10× for overview (FIG. 7a) and at 63× for details (FIG. 7b). Two types of grading of the focal adhesions in the cells were performed.
# [3] = test system: HaCaT Keratinocytes; assay: Cell culture on FNCC silk coatings; conditions: coating 0.1 mg/ml
# Procedure: (§1) After purification, solutions of FNCC-silk protein (SEQ ID NO: 13) were used to coat cell culture plates (Sarstedt, hydrophobic plates for suspension cells). Briefly, the protein solutions were diluted to 0.1 mg/ml in Tris buffer, and allowed to incubate at room temperature for 30 minutes before removal and wash.
# (§2) Cells were harvested using trypsination (TrpLE) and seeded onto the FNcc-silk coatings at suitable cell density (3-10 000 cells/cm2). Cell growth was monitored with Alamar Blue cell viability assay (Molecular Probes) regularly (every 2-3 day). At the end point, after 7-14 days, Live/dead staining was performed.
# [4] = test system: Human Dermal Microvascular Endothelial Cells; assay: Cell culture on FNCC silk coatings; conditions: coating 0.1 mg/ml
# Procedure: as §1, §2
# [5] = test system: Human Dermal fibroblasts; assay: Cell culture on FNCC silk coatings; conditions: coating 0.1 mg/ml
# Procedure: as §1, §2
# [6] = test system: Human Mesenchymal stem cells; assay: Cell culture on FNCC silk coatings; conditions: coating 0.1 mg/ml
# Procedure: as §1, §2
# [7] = test system: Human Skeletal Muscle Satellite Cells; assay: Cell culture on FNCC silk coatings; conditions: coating 0.1 mg/ml
# Procedure: as §1, §2
# [8] = test system: MIN6-m9 pancreatic cell line; assay: Cell culture on FNCC silk coatings; conditions: coating 0.1 mg/ml
# Procedure: as §1, §2
# [9] = test system: Mouse Mesenchymal stem cells; assay: Cell culture on FNCC silk coatings; conditions: coating 0.1 mg/ml
# Procedure: as §1, §2
molecule,measurement,setting,value
B1,cell morphology (F-actin),[1],most cells had a nice spread-out morphology with distinct actin filaments
same,spreading of KC (total cell area in 4× micrographs),[1]; seeding 3 500/cm^2,significantly increased compared to FNSS-silk
same,spreading of KC (total cell area in 4× micrographs),"[1]; seeding 3 500/cm^2, listed as FNCC",significantly increased spreading of KC compared to RGD-film (p<0.05) and WT-film (p<0.001)
same,time after seeding at which prominent focal adhesions appeared,[2],20 min
same,percentage of cells exhibiting focal adhesions,"[2]; 3 h adherence, 10× magnification","significant increase in percentage of cells expressing focal adhesions on FNCC-silk, compared to RGD and WT"
same,quality (grading) of focal adhesions,"[2]; 3 h adherence, 63× magnification",tendency of more prominent focal adhesions in cells attached to FNCC-silk compared to the other silk types; also recorded: almost only prominent focal adhesions
same,growth profile (Alamar Blue),[3]; 7-14 days,positive growth profile
same,viable cells at the end point (Live/dead staining),[3]; after 7-14 days,> 80%
same,growth profile (Alamar Blue),[4]; 7-14 days,positive growth profile
same,viable cells at the end point (Live/dead staining),[4]; after 7-14 days,> 80%
same,growth profile (Alamar Blue),[5]; 7-14 days,positive growth profile
same,viable cells at the end point (Live/dead staining),[5]; after 7-14 days,> 80%
same,growth profile (Alamar Blue),[6]; 7-14 days,positive growth profile
same,viable cells at the end point (Live/dead staining),[6]; after 7-14 days,> 80%
same,growth profile (Alamar Blue),[7]; 7-14 days,positive growth profile
same,viable cells at the end point (Live/dead staining),[7]; after 7-14 days,> 80%
same,growth profile (Alamar Blue),[8]; 7-14 days,positive growth profile
same,viable cells at the end point (Live/dead staining),[8]; after 7-14 days,> 80%
same,growth profile (Alamar Blue),[9]; 7-14 days,positive growth profile
same,viable cells at the end point (Live/dead staining),[9]; after 7-14 days,> 80%
